# From publication PMC12280208 (Nature Communications, 2025)
# B1: PARP4 MINT domain (residues 1562-1724), wild type (domain or fragment)
# chain: VCIQHWQDAVPWTELLSLQTEDGFWKLTPELGLILNLNTNGLHSFLKQKGIQSLGVKGRECLLDLIATMLVLQFIRTRLEKEGIVFKSLMKMDDASISRNIPWAFEAIKQASEWVRRTEGQYPSICPRLELGNDWDSATKQLLGLQPISTVSPLHRVLHYSQG
# Biological target: MVP3-5 (MVP residues 102-274), wild type (human, UniProt Q14764 102-274)
# Assay: SEC
# Chain of MVP3-5 (MVP residues 102-274), wild type (Q14764 102-274): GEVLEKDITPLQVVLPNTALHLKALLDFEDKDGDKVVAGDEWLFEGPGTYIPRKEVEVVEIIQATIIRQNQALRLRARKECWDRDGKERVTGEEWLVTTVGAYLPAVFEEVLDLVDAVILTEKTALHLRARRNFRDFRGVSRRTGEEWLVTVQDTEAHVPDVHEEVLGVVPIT
binder,measurement,value
B1,binding result,binds
